Experimental data reported in publication PMC3833262 (2014).

Molecular target: the molecule itself
Assay: multi-angle light scattering

B1: arrestin-1 (protein)
chain: MAACGKTNKSHVIFKKVSRDKSVTIYLGKRDYVDHVSQVEPVDGVVLVDPELVKGKKVYVTLTCAFRYGQEDIDVMGLTFRRDLYFSRVQVYPPVGAMSVLTQLQESLLKKLGDNTYPFLLTFPDYLPCSVMLQPAPQDVGKSCGVDFEVKAFASDITDPEEDKIPKKSSVRLLIRKVQHAPPEMGPQPSAEASWQFFMSDKPLNLSVSLSKEIYFHGEPIPVTVTVTNNTDKVVKKIKVSVEQIANVVLYSSDYYVKPVASEETQEKVQPNSTLTKTLVLVPLLANNRERRGIALDGKIKHEDTNLASSTIIKEGIDRTVMGILVSYHIKVKLTVSGFLGELTSSEVATEVPFRLMHPQPEDPAKESVQDENLVFEEFARQNLKDTGENTEGKKDEDAGQDE
- Kd: 57.5 µM
